Assay: yeast display, Sf9 membrane polyspecificity reagent, FACS + sequencing; frameworks hold sequencing errors
Outline: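 Using colony PCR, genes from sorted yeast display clones were amplified, then sequenced on MiSeq at 2 × 250 and filtered by CDR length. The clones had been stained with 10% biotinylated, detergent-solubilized Sf9 membrane reagent for 1 hour at 4 °C and sorted by FACS into low and high (top ~1%) gates on anti-HA and streptavidin fluorescence. Polyreactivity labels come from the gate of origin.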

Sequence | polyreactivity (PSR sort gate)
QVQLVESGGGLVQAGGSLRLSCAASGNTFYKNTMGWYRQAPWKERELVAAISQRGTRTYYADSVKGRFTISRDNAKNTVYLQMNSLKPEDTAVYYCATDLSQVGFDYWGQGTQVTVSS | high polyreactivity
QVQLVESGGGLVQAGGSLRLSCAASGNTFYRYAMGRYRQAPGKEREFVAGITSRGGSTSYADSVKGRFTISRDSAKNTVYLQMNILKPEDTAVYYCAARYSKVHFAYDYWGQGTQVTVSS | high polyreactivity
QVQLVESGGGLVQAGGSLRLSCAASGNTFYSNAMGWYRQAPGKERDLVAAISASGTTTYYADSVKGRFTISRDNAKNTVYLQMNSLKPEDTAVYYCAAVAPTRATRREDSWGQGTQVTVSS | high polyreactivity
QVQLVESGGGLVQAGGSLRLSCAASGNTFYTYGMGWYRQAPGKERELVAAINHNGGSTYYADSVKARFTISRDNAKNTVYLQMNSLKPEDTAVYYCNADYSTYVERGSSVYYWYDYWGQGTQVTVSS | low polyreactivity
QVQLVESGGGLVQAGGSLRLSCAASGNTFYVYTMGWYRQAPGKERELVAAISSTGDRTYYADSVKGRFTISRDYAKNTVYLQMNSLKPEETAVYYCAARLYRGYRGYYYWGQGTQVTVSS | high polyreactivity
QVQLVESGGGLVQAGGSLRLSCAASGNTFYYNAMGWYRQAPGKEREFVAAITSSGGGTYYADSVKGRFTISRDNAKNTVYLQMNSLKPEDTAVYYCAADATYRKQVIFYYWGQGTQVTVSS | low polyreactivity
QVQLVESGGGLVQAGGSLRLSCAASGNTIIDYAMGWYRQPPGKERELVASITSGGGSTYYADSVKGRFTISRDNAKNTVYLQMNSLKPVDTAVYYCAAERYYSEAIFRSYDYWGQGTQVTVSS | low polyreactivity
QVQLVESGGGLVQAGGSLRLSCAASGNTLASYAMGWYRQAPGKEREFVAAITNRSGSTYYADSVKGRFTISRDNAKNTVYLQMNSLKPEDTAVYYCAARYGRRSGQMGYWGQGTQVTVSS | high polyreactivity
QVQLVESGGGLVQAGGSLRLSCAASGNTLGYNAAMGWYRQAPGKERELVAAITENGGSTYYADSVKGRFTISRDNAKNTVYLQMNSLKPEDTAVYYCATAPYYYRGAYGFEYWGQGTQVTVSS | low polyreactivity
QVQLVESGGGLVQAGGSLRLSCAASGNTLIQYAMGWIIQAPGKEREVLAGISGTDDSTYYADSVKGRFTISRDNAKNTVYFQMTSLKPEDRSVYYCATREWYDKYPNIYVSFDYWGQGTQVTVSS | low polyreactivity
QVQLVESGGGLVQAGGSLRLSCAASGNTLQVYAMGGYRPAPGKERELVARLTGGGRTSYADSVKGRFTISRDNAKTTVYLQMHSLKPEDTAVYYCATVYYGHIVLYDYWGQGTQVTVSA | low polyreactivity
QVQLVESGGGLVQAGGSLRLSCAASGNTQGYNAAMGWYRQAPGKERELVAAINSGGGSTYYADSVKGRFTISRDNAKNTVYLQMNSLKPEDTAVYYCAARYRSRYDYYYDRDYWGQGTQVTVSS | low polyreactivity
QVQLVESGGGLVQAGGSLRLSCAASGNTSGHNAMGWYRQAPGKERELVADIRTGDSTNYADSVKGRFTISRDNAKNTVYLQMNSLKPEDTAVYYCAADSAYDVTSYGYWGQGTQVTVSS | low polyreactivity
QVQLVESGGGLVQAGGSLRLSCAASGPIFHPYAMGWYRHAPGKERELVAAITNSGGITYADSVKGRFTISRDNAKNTVYLQMNSLKPEDTAVYYCNTATNRFHYKYRKPYDYWGQGTQVTVSS | low polyreactivity
QVQLVESGGGLVQAGGSLRLSCAASGPIFKRNAMGWYRQAPGKERELVAAISGSGGRTYYADSVKGRFTISRDNAKYTVYLQMNSLKREDTAVYYCNAGGSYYARGMDYWGQGTQVTVSS | high polyreactivity
QVQLVESGGGLVQAGGSLRLSCAASGPIFVENAMGRNRPAPGKERELVAAISGGGSTDYADSVKGRFTISRDNAKNTVYLEMNSLKPVYTAVYFCNARQVFTTAGGEMDYWGQGTQVTVSS | low polyreactivity
QVQLVESGGGLVQAGGSLRLSCAASGPIIDFYAMGWSRKAPGKERELVAAISWRGGSTYYADSVKGRFTISRDNAKNSVYLQMNSLKPEDTAVYYCANRFGPRYYWGQGTQVTVSS | low polyreactivity
QVQLVESGGGLVQAGGSLRLSCAASGPISAIYDMGWYRQAPGKEREVVAAISGGTSTYYADSVKGRFTISRDNAKNTVYLQMNSLKPEDTAVYYCNAEASSYHGVEDEYDYWGQGTQVTVSS | low polyreactivity
QVQLVESGGGLVQAGGSLRLSCAASGPISRYNTMGWYRQAPGKERELVAAISYRGGSTYYADSVKGRFTISRDNAKNTVYLQMNSLKPEDTAVYYCNKVRSSVRSGGYGYWGQGTQVTVSS | high polyreactivity
QVQLVESGGGLVQAGGSLRLSCAASGPTFTPYAMGWYRPAPGKERELVAAISGGGSTNYADSVKGRFTISRDNAKNTVFLQMNSLKPEDTAVYYCAKRVYRGRRMDYWGQGTQVTVSS | high polyreactivity
QVQLVESGGGLVQAGGSLRLSCAASGRFFSWNAMGWYRPAPGTERELVAAISSSVGSTYYADSVKGRFTISRDNAQNTVYFQMNSRKPEDTAVYYCNAVPIGQWAYDYWGQGTQVTVSS | high polyreactivity
QVQLVESGGGLVQAGGSLRLSCAASGRGYYAMGWYRQAPGKERELVAAISRGGNTKYADSVKGRFTISRDNAKNTVYLQMNSLKPEDTAVYYCYTDWADYYYYTDYDYWGQGTQVTVSS | high polyreactivity

Sequence | polyreactivity (PSR sort gate)
QVQLVESGGGLVQAGGSLRLSCAASGRICGYNSMGWYRQAPGKERELVAAISSSGGSTYYADSVKGRFTISRDYATNTVYVQMNSLKREATAVYYCAARIGYRSWAWDAYEYCGQGTQVTVSS | low polyreactivity
QVQLVESGGGLVQAGGSLRLSCAASGRIFADNGMGWYRQAPGKERELVASITSSGGDTYYADSVKGRFTISRDNAKNTVYLQMNSLKPEDTAVYYCATECSWLFYGVWVVTFGDDYWGQGTQVTVSS | low polyreactivity
QVQLVESGGGLVQAGGSLRLSCAASGRIFADNGMGWYRQAPGKERELVASITSSGGDTYYADSVKGRFTISRDNAKNTVYLQMNSLKPEDTAVYYCATEFSWLFYGVWVVTFGDDYWGQGTQVTVSS | low polyreactivity
QVQLVESGGGLVQAGGSLRLSCAASGRIFADYAMGWYRQAPGKERELVATITSGDRTYYADSVKGRFTTSRDNAKNTVYLQMNSLKPEDTAVYYCAAYKPWYVGLYPWYDYWGQGTQVTVSS | low polyreactivity
QVQLVESGGGLVQAGGSLRLSCAASGRIFAFNAMGWYRQAPGKERELVADITSSGVNTYYADSVKGRFTISRDNAKNTVYLQMNSLKPEDTAVYYCAARSYLRWWVGMEYWGQGTQVTVSS | low polyreactivity
QVQLVESGGGLVQAGGSLRLSCAASGRIFAFYAMGWYRPAPGKEREFVAAITYSGGNTNYADSVKGRFTISRDNAKNTVYIEMNSLKPEDTPVYYCAADLVYGVYYQEDYWGQGTQVTVSS | low polyreactivity
QVQLVESGGGLVQAGGSLRLSCAASGRIFAFYAMGWYRQAPGKEREFVAAISWSGGSTYYADSVKGRFTISRDNAKNTVYLQMNSLKPEDTAVYYCAARSRVRHSGMNYWGQGTQVTVSS | high polyreactivity
QVQLVESGGGLVQAGGSLRLSCAASGRIFAFYAMGWYRQAPGKERELVAAISWSGGSTYFADSVKGRFTISRDNAKNTVYLQMHSLIPEDTAVYYCAAYRTRGSAYPYDYWGQGTQVTVSS | high polyreactivity
QVQLVESGGGLVQAGGSLRLSCAASGRIFAGYAMGWYRQAPGKERELVASIRYSGGSTYADSVKGRFPISRDNAKNTVYLQMNSLKAEDTAVYYCAADIRQFYVGWGSTLWYGHDYWGQGTQVTVSS | low polyreactivity
QVQLVESGGGLVQAGGSLRLSCAASGRIFAGYVMGWYRQAPGKERELVAAISWRGGRTYYADSVKGRFTISRDNAKNTVYLQMNSLKPEDTAVYYCNAPYAVGYPADDYWGQGTQVTVSS | high polyreactivity
QVQLVESGGGLVQAGGSLRLSCAASGRIFAGYVMGWYRQAPGKERELVAAITSGGGTDYADSVKGRFTISRDNAKNTVYLQMNSQKPEDTAVYYCAADPYYSWFGWDYEYWGQGTQVTVSS | high polyreactivity
QVQLVESGGGLVQAGGSLRLSCAASGRIFAHNAMGWYRQAPGKERELVAAINWSGGSTYYADSVTWRFTISRDNAKNTVYLQMNSLKPEDTAVYYCNNRYIHRSRAGYDYWGQGTQVTVSS | low polyreactivity
QVQLVESGGGLVQAGGSLRLSCAASGRIFAHYAMGWYRQAPGKERELVAAISSGGSTYYADSVKGRFTISRDNEKNTVYLQINSLKPEDTAVYYCAADYLYPPYYEFYYWGQGTQVTVSS | low polyreactivity
QVQLVESGGGLVQAGGSLRLSCAASGRIFAHYAMGWYRQAPGKERELVADIRQSGGRTYYADSVKGRFTISRDNAKNTVYLKMNSLKPEDTAVYFCATDYGSWGDYSGKYDYWGQGTQVTVSS | low polyreactivity
QVQLVESGGGLVQAGGSLRLSCAASGRIFAHYAMGWYRQAPGKEREMVAAISRRGGSTYYAESVKGRFTISRDNAKNTVYLQMNRLKPEDTAVYYCNAVTRSSLSWFFGYDYWGQGTQVTVSS | high polyreactivity
QVQLVESGGGLVQAGGSLRLSCAASGRIFALYAMGGYRQAPGKERELVAAISIRAGSTYYADSAKGRFTISRDNAKNTVYLQMNSLKPEDTAVYYCATKGWVSTSYYYRPYGYWGQGTQVTVSS | high polyreactivity
QVQLVESGGGLVQAGGSLRLSCAASGRIFALYAMGWYRQAPGKERELVASINGSSGSTYYADSVKGRFTISRDTAKNTVYLQMNSLKPEDTAVYYCAKKYYGVKFYWGQGTQVTVSS | low polyreactivity
QVQLVESGGGLVQAGGSLRLSCAASGRIFANAMGWYRQAPGKERELVAAISTSGGRTYYADSVKGRFTISRDNAKNTVYLQMNSLKPEDTAVYYCAARPHTPPVTSGYNHWGQGTQVTVSS | high polyreactivity
QVQLVESGGGLVQAGGSLRLSCAASGRIFAPYAMGWYRQAPGKEREVVAGITRGGITNYADSVKGRFTISRDNAKNTVYLQMNSLKPEDTAVYYCATVVNRRGFYQYYYWGQGTQVTVSS | high polyreactivity
QVQLVESGGGLVQAGGSLRLSCAASGRIFAQNAMGWYRQAPRNERELVAGISYGGGRTYYADSVKGRFTISRDKAKNTVYLQMNSLKPEDTAVYYCAKAVNSPRKYQLGNGYWGQGTQVTVSS | high polyreactivity
QVQLVESGGGLVQAGGSLRLSCAASGRIFAQYAMGWYRQAPGKERELVAAISSGGNTYYADSVKGRFTISRDNAKNTVYLQMNSLKPEDTAVYYCAASSRRYLWGFDYWGQGTQVTVSS | low polyreactivity
